Data as given in patent publication US20150344570A1 (published 2015).

T1: FcγRIIb (human, UniProt P31994 43-217)
T1 construct: extracellular domain; also called FcgRIIb; CD32B
T1 sequence (looked up): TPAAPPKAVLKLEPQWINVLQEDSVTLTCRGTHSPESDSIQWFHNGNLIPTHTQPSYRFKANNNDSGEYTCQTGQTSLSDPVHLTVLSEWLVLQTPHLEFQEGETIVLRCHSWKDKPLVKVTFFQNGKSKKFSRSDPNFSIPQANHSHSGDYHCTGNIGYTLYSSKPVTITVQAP

T2: FcγRIIb extracellular domain with C-terminal His tag (human, UniProt P31994 43-217)
T2 construct: extracellular domain; Soluble receptor expressed in FreeStyle293 cells, used as analyte in Biacore; also called FcgRIIb; 2b
T2 sequence (looked up): T1 sequence (looked up)

B1: GpH7-A5/GpH7-B3 variant P329_01G/GpL16-k0 (antibody, human IgG1, kappa)
heavy 1: not shown
heavy 2: not shown
light: DIVMTQSPLSLPVTPGEPASISCQASESLVHSNRNTYLHWYLQKPGQSPQLLIYKVSNRFSGVPDRFSGSGSGTDFTLKISRVEAEDVGVYYCSQNTHVPPTFGQGTKVEIERTVAAPSVFIFPPSDEQLKSGTASVVCLLNNFYPREAKVQWKVDNALQSGNSQESVTEQDSKDSTYSLSSTLTLSKADYEKHKVYACEVTHQGLSSPVTKSFNRGEC
notes: He Ab; mutation in the GpH7-B3 chain only; also called He Ab
B2: GpH7-A5/GpH7-B3 variant I336_13S/GpL16-k0 (antibody, human IgG1, kappa)
heavy 1: not shown
heavy 2: not shown
light: B1 light
notes: as for B1
B3: GpH7-A5/GpH7-B3 variant I336_15Y/GpL16-k0 (antibody, human IgG1, kappa)
heavy 1: not shown
heavy 2: not shown
light: B1 light
notes: as for B1
B4: GpH7-A5/GpH7-B3 variant E333_01G/GpL16-k0 (antibody, human IgG1, kappa)
heavy 1: not shown
heavy 2: not shown
light: B1 light
notes: as for B1
B5: GpH7-A5/GpH7-B3 variant A330_03V/GpL16-k0 (antibody, human IgG1, kappa)
heavy 1: not shown
heavy 2: not shown
light: B1 light
notes: as for B1
B6: GpH7-A5/GpH7-B3 variant E333_02A/GpL16-k0 (antibody, human IgG1, kappa)
heavy 1: not shown
heavy 2: not shown
light: B1 light
notes: as for B1
B7: GpH7-A5/GpH7-B3 variant A330_16H/GpL16-k0 (antibody, human IgG1, kappa)
heavy 1: not shown
heavy 2: not shown
light: B1 light
notes: as for B1
B8: GpH7-A5/GpH7-B3 variant A330_09D/GpL16-k0 (antibody, human IgG1, kappa)
heavy 1: not shown
heavy 2: not shown
light: B1 light
notes: as for B1
B9: GpH7-A5/GpH7-B3 variant I336_01G/GpL16-k0 (antibody, human IgG1, kappa)
heavy 1: not shown
heavy 2: not shown
light: B1 light
notes: as for B1
B10: GpH7-A5/GpH7-B3 variant I336_19Q/GpL16-k0 (antibody, human IgG1, kappa)
heavy 1: not shown
heavy 2: not shown
light: B1 light
notes: as for B1
B11: GpH7-A5/GpH7-B3 variant A327_19Q/GpL16-k0 (antibody, human IgG1, kappa)
heavy 1: not shown
heavy 2: not shown
light: B1 light
notes: as for B1
B12: GpH7-A5/GpH7-B3 variant A330_14T/GpL16-k0 (antibody, human IgG1, kappa)
heavy 1: not shown
heavy 2: not shown
light: B1 light
notes: as for B1
B13: GpH7-A5/GpH7-B3 variant E333_18N/GpL16-k0 (antibody, human IgG1, kappa)
heavy 1: not shown
heavy 2: not shown
light: B1 light
notes: as for B1
B14: GpH7-A5/GpH7-B3 variant A330_08L/GpL16-k0 (antibody, human IgG1, kappa)
heavy 1: not shown
heavy 2: not shown
light: B1 light
notes: as for B1
B15: GpH7-A5/GpH7-B3 variant A330_20W/GpL16-k0 (antibody, human IgG1, kappa)
heavy 1: not shown
heavy 2: not shown
light: B1 light
notes: as for B1
B16: GpH7-A5/GpH7-B3 variant E333_12R/GpL16-k0 (antibody, human IgG1, kappa)
heavy 1: not shown
heavy 2: not shown
light: B1 light
notes: as for B1
B17: GpH7-A5/GpH7-B3 variant A330_06M/GpL16-k0 (antibody, human IgG1, kappa)
heavy 1: not shown
heavy 2: not shown
light: B1 light
notes: as for B1
B18: GpH7-A5/GpH7-B3 variant A330_18N/GpL16-k0 (antibody, human IgG1, kappa)
heavy 1: not shown
heavy 2: not shown
light: B1 light
notes: as for B1
B19: GpH7-A5/GpH7-B3 variant E333_16H/GpL16-k0 (antibody, human IgG1, kappa)
heavy 1: not shown
heavy 2: not shown
light: B1 light
notes: as for B1
B20: GpH7-A5/GpH7-B3 variant E333_11K/GpL16-k0 (antibody, human IgG1, kappa)
heavy 1: not shown
heavy 2: not shown
light: B1 light
notes: as for B1
B21: GpH7-A5/GpH7-B3 variant A327_16H/GpL16-k0 (antibody, human IgG1, kappa)
heavy 1: not shown
heavy 2: not shown
light: B1 light
notes: as for B1
B22: GpH7-A5/GpH7-B3 variant I336_02A/GpL16-k0 (antibody, human IgG1, kappa)
heavy 1: not shown
heavy 2: not shown
light: B1 light
notes: as for B1
B23: GpH7-A5/GpH7-B3 variant I332_12R/GpL16-k0 (antibody, human IgG1, kappa)
heavy 1: not shown
heavy 2: not shown
light: B1 light
notes: as for B1
B24: GpH7-A5/GpH7-B3 variant I336_20W/GpL16-k0 (antibody, human IgG1, kappa)
heavy 1: not shown
heavy 2: not shown
light: B1 light
notes: as for B1
B25: GpH7-A5/GpH7-B3 variant A330_13S/GpL16-k0 (antibody, human IgG1, kappa)
heavy 1: not shown
heavy 2: not shown
light: B1 light
notes: as for B1
B26: GpH7-A5/GpH7-B3 variant E333_13S/GpL16-k0 (antibody, human IgG1, kappa)
heavy 1: not shown
heavy 2: not shown
light: B1 light
notes: as for B1
B27: GpH7-A5/GpH7-B3 variant A327_20W/GpL16-k0 (antibody, human IgG1, kappa)
heavy 1: not shown
heavy 2: not shown
light: B1 light
notes: as for B1
B28: GpH7-A5/GpH7-B3 variant A330_07I/GpL16-k0 (antibody, human IgG1, kappa)
heavy 1: not shown
heavy 2: not shown
light: B1 light
notes: as for B1
B29: GpH7-A5/GpH7-B3 variant A330_10E/GpL16-k0 (antibody, human IgG1, kappa)
heavy 1: not shown
heavy 2: not shown
light: B1 light
notes: as for B1
B30: GpH7-A5/GpH7-B3 variant Y300_01G/GpL16-k0 (antibody, human IgG1, kappa)
heavy 1: not shown
heavy 2: not shown
light: B1 light
notes: Heterodimerized anti-glypican-3 IgG1; mutation in the GpH7-B3 chain only; also called He Ab
B31: GpH7-A5/GpH7-B3 variant Y300_08L/GpL16-k0 (antibody, human IgG1, kappa)
heavy 1: not shown
heavy 2: not shown
light: B1 light
notes: as for B30
B32: GpH7-A5/GpH7-B3 variant Y300_07I/GpL16-k0 (antibody, human IgG1, kappa)
heavy 1: not shown
heavy 2: not shown
light: B1 light
notes: as for B30
B33: GpH7-A5/GpH7-B3 variant Y300_13S/GpL16-k0 (antibody, human IgG1, kappa)
heavy 1: not shown
heavy 2: not shown
light: B1 light
notes: as for B30
B34: GpH7-A5/GpH7-B3 variant Y300_14T/GpL16-k0 (antibody, human IgG1, kappa)
heavy 1: not shown
heavy 2: not shown
light: B1 light
notes: as for B30

Target: T3, FcγRIa (human, UniProt P12314 16-292)
T3 construct: extracellular domain; also called FcgRI; CD64
Test: ratio of He/Con_1a to He/Con_2b (FcγRIa over FcγRIIb), SPR
Protocol: (§1) The heterodimerized antibodies He Abs in which one of the H chains was introduced with an alteration were assayed for their binding activities to each activating FcγR and inhibitory FcγR according to the method described in Example 4. […] The activating FcγRs in FIGS. 26, 27, 28, and 29 are FcγRIa, FcγRIIa (R), FcγRIIa (H), and FcγRIIIa, respectively.
(§2) Analysis of interaction between objective antibody and the FcγR was carried out using Biacore T100 (GE Healthcare). HBS-EP+ (GE Healthcare) was used as the running buffer, and the measurement temperature was set to 25° C. Chips produced by immobilizing the antigen peptide by the amine coupling method to a Series S Sencor Chip CM5 (GE Healthcare), or alternatively, chips produced by allowing preliminarily biotinylated antigen peptides to interact with and immobilize onto a Series S Sensor Chip SA (certified) (GE Healthcare) were used. Antibodies of interest were captured onto an antigen peptide-immobilized chip, and allowed to interact to each FcγR diluted with running buffer. To regenerate and repeatedly use the chip, the antibodies captured on the chip were washed off by reacting 10 mM glycine-HCl, pH 1.5.

T3 sequence (P12314 16-292): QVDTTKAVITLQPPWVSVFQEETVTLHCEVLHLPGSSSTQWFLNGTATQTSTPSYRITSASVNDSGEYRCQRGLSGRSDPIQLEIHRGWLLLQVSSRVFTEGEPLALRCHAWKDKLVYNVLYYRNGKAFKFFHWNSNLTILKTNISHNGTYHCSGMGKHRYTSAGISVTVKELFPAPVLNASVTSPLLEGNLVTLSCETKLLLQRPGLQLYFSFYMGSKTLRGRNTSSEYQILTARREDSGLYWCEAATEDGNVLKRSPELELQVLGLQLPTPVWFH

| He_1a/2b (Ia/IIb) | Binder |
| --- | --- |
| 2.42 | B1 |
| 1.22 | B2 |
| 1.51 | B3 |
| 1.26 | B4 |
| 2.01 | B5 |
| 1.23 | B6 |
| 1.21 | B7 |
| 1.95 | B8 |
| 1.21 | B9 |
| 1.78 | B10 |
| 1.78 | B11 |
| 1.35 | B12 |
| 1.27 | B13 |
| 1.52 | B14 |
| 1.41 | B15 |
| 1.27 | B16 |
| 1.3 | B17 |
| 1.67 | B18 |
| 1.21 | B19 |
| 1.27 | B20 |
| 1.52 | B21 |
| 1.25 | B22 |
| 2.05 | B23 |
| 4.28 | B24 |
| 2.22 | B25 |
| 1.26 | B26 |
| 1.24 | B27 |
| 1.57 | B28 |
| 1.53 | B29 |

Target: T1, FcγRIIb
Test: SPR (Biacore), captured antibody, soluble FcγR; relative to GpH7-A5/GpH7-B3/GpL16-k0 = 100
Protocol: as §1, §2

| He/Con_2b | Binder |
| --- | --- |
| 41.7 % of control | B1 |
| 83.7 % of control | B2 |
| 68.2 % of control | B3 |
| 81.4 % of control | B4 |
| 52.4 % of control | B5 |
| 83.8 % of control | B6 |
| 87.6 % of control | B7 |
| 55.6 % of control | B8 |
| 90.1 % of control | B9 |
| 58.2 % of control | B10 |
| 54.2 % of control | B11 |
| 77.9 % of control | B12 |
| 76.1 % of control | B13 |
| 70.5 % of control | B14 |
| 76.1 % of control | B15 |
| 80.4 % of control | B16 |
| 80.5 % of control | B17 |
| 63.7 % of control | B18 |
| 83.3 % of control | B19 |
| 80.6 % of control | B20 |
| 63.5 % of control | B21 |
| 84.9 % of control | B22 |
| 48.9 % of control | B23 |
| 20.3 % of control | B24 |
| 41.3 % of control | B25 |
| 81.8 % of control | B26 |
| 73.8 % of control | B27 |
| 67.1 % of control | B28 |
| 70.1 % of control | B29 |

Target: T3, FcγRIa
Test: as above
Protocol: as §1, §2

| He/Con_1a | Binder |
| --- | --- |
| 101 % of control | B1 |
| 102 % of control | B2 |
| 103 % of control | B3 |
| 103 % of control | B4 |
| 106 % of control | B5 |
| 103 % of control | B6 |
| 106 % of control | B7 |
| 109 % of control | B8 |
| 109 % of control | B9 |
| 104 % of control | B10 |
| 96.2 % of control | B11 |
| 105 % of control | B12 |
| 96.6 % of control | B13 |
| 107 % of control | B14 |
| 108 % of control | B15 |
| 102 % of control | B16 |
| 105 % of control | B17 |
| 106 % of control | B18 |
| 101 % of control | B19 |
| 102 % of control | B20 |
| 96.5 % of control | B21 |
| 106 % of control | B22 |
| 100 % of control | B23 |
| 86.7 % of control | B24 |
| 91.5 % of control | B25 |
| 103 % of control | B26 |
| 97.7 % of control | B27 |
| 105 % of control | B28 |
| 107 % of control | B29 |

Target: T4, FcγRIIIa extracellular domain with C-terminal His tag (human, UniProt P08637 17-208)
T4 construct: extracellular domain; also called FcgRIIIa; 3a
Test: SPR (Biacore); He/Con_3a divided by He/Con_2b (FcγRIIIa against FcγRIIb)
Procedure, shortened: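 Biacore T100, HBS-EP+ running buffer, 25° C: heterodimerized antibodies captured on antigen-peptide chips (CM5 amine-coupled or SA biotinylated), His-tagged FcγR extracellular domains injected as analyte.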

T4 sequence (P08637 17-208): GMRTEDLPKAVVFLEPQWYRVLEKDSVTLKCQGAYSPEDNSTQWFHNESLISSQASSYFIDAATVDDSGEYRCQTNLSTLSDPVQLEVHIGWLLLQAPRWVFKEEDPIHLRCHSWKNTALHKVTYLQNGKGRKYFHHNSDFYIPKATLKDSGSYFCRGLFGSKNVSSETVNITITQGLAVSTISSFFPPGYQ

| He_3a/2b (IIIa/IIb) [ratio] | Binder |
| --- | --- |
| 1.69 | B30 |
| 1.43 | B31 |
| 1.28 | B32 |
| 1.37 | B33 |
| 1.53 | B34 |

Target: T2, FcγRIIb extracellular domain with …
Test: SPR (Biacore), antibody captured on antigen peptide chip, FcγR as analyte; GpH7-A5/GpH7-B3/GpL16-k0 = 100

| He/Con_2b (relative binding activity) | Binder |
| --- | --- |
| 48.4 % of control | B30 |
| 73.6 % of control | B31 |
| 74.5 % of control | B32 |
| 53.9 % of control | B33 |
| 55.6 % of control | B34 |

Target: T4, FcγRIIIa extracellular domain with …
Test: as above

| He/Con_3a (relative binding activity) | Binder |
| --- | --- |
| 81.6 % of control | B30 |
| 105 % of control | B31 |
| 95.1 % of control | B32 |
| 73.9 % of control | B33 |
| 85.4 % of control | B34 |
